Assay results: the Human Domainome abundance scans (Beltran et al. 2025)

B1: PMS1 protein homolog 1, residues 572 to 637; numbered along this chain, P54277 (parent)
chain: KKPMSASALFVQDHRPQFLIENPKTSLEDATLQIEELWKTLSEEEKLKYEEKATKDLERYNSQMKR

Variants of: B1
Assay: abundance fitness (aPCA) (normalised: wild type 0, dead -1); higher = more abundant; growth selection in yeast, the domain comes from the species named
Conditions: Homo sapiens

Abundance fitness: each site, then its substitutions
H14: Y -0.063
M4: Q 0.043 | L -0.017 | Y -0.091 | T -0.05 | N -0.157 | E -0.002 | P -0.064 | K 0.057 | A -0.072 | F -0.12 | R -0.106 | H -0.044 | W -0.485 | C -0.627 | V -0.091
Q12: A 0.258 | T -0.54
S26: L -0.538 | N -0.167 | Q -0.327 | T -0.061 | V -0.654 | Y -0.861 | I -0.605 | A -0.229 | M -0.482 | W -1.3 | K -0.155 | P -0.21 | D -0.102 | C -0.111 | R -0.282 | G -0.223 | F -0.775 | H -0.349 | E -0.317
L41: I -0.202 | G -0.315 | H -0.467 | C -0.196 | D -0.319 | E -0.295 | F -0.733
S5: E -0.031 | C -0.333 | R -0.293 | G -0.032 | P 0.322 | W -0.874 | A -0.252 | D -0.341 | L -0.283 | M -0.411 | I -0.336 | T 0.095 | K -0.179
R15: D -0.729 | Q -0.336 | V 0.033 | P -0.541 | A -0.039 | T -0.111 | G -0.559 | H -0.227 | N -0.769 | S -0.41 | L 0.003 | K -0.38 | W -0.408 | F 0.035 | E -0.409 | M 0.07
K2: L -0.08 | P -0.201 | F -0.242 | M -0.321 | G -0.696 | H 0.115 | R -0.332 | C -0.095 | Q -0.545 | I -0.475 | S -0.201 | E -0.433
E35: I -0.33 | M -0.038 | W -0.774 | R -0.142 | P -0.14 | A -0.2 | K -0.26 | C -0.274 | V -0.548 | T -0.207 | H -0.171 | D -0.86 | S -0.189 | N -0.389 | Q -0.414 | F -0.251
L27: M -0.089 | S -0.048 | F 0.224 | G -0.308 | V -0.132 | P 0.057 | Y -0.079 | E -0.538 | C -0.384 | T -0.101 | A -0.127 | Q -0.532
T40: D -0.101 | A -0.294 | I -0.165 | L -0.114 | H -0.087 | Q -0.094 | N -0.086 | G -0.041 | V -0.239 | C 0.115 | R -0.125 | P -0.537 | S -0.128 | W -0.253 | F -0.041 | K -0.099 | Y -0.387 | M -0.165 | E -0.028
L37: C -0.278 | V -0.127 | R -0.091 | K 0.116 | M -0.319 | T -0.123 | P -0.995 | I -0.357 | Y -0.459 | W -0.386 | E -0.359 | S -0.083 | G -0.175 | A -0.052 | H -0.01
P16: C -0.357 | K -0.17 | I -0.224 | S -0.214 | A -0.06 | M -0.447 | Q -0.041 | W -0.421 | E -0.087 | G -0.244 | V -0.47 | R -0.08 | D 0.118 | T -0.159 | L -0.401 | Y -0.198
L9: G -0.308 | R -0.017 | N -0.467 | P -0.98 | M -0.167 | Y -0.155 | T -0.287 | V -0.2 | A -0.61 | F -0.131 | K -0.044 | S -0.254 | Q 0.032
A30: V -0.29 | H -0.34 | W -0.632 | T -0.668 | L -0.634 | R -0.666 | Q -0.439 | G -0.401 | E -0.414
T31: D -0.11 | P -0.599 | E -0.142 | S -0.335 | Q -0.359 | R -0.089 | F -0.325 | G -0.321 | L -0.433 | M -0.516
S7: K 0.069 | L -0.087 | Q 0.176 | A 0.007 | R 0.121 | N -0.055 | T -0.122 | E 0.017 | M 0.235 | W -0.388 | G -0.134 | D 0.036 | F -0.108 | C -0.28 | H -0.144
A6: T -0.646 | D -0.665 | Y -0.925 | G -0.306 | W -1.87 | E -0.607 | Q -0.493 | I -1.17 | S -0.195 | M -0.704 | R -0.637 | K -0.348 | C -0.281 | P -0.38
Q33: E -0.124 | W -0.696 | K -0.06 | S -0.23 | M -0.283 | G -0.405 | R -0.229 | P -0.579 | D -0.24 | T -0.454 | A -0.05 | V -0.329
F10: Q -0.466 | N -0.655 | K -0.368 | E -0.483 | L -0.731 | V -0.812 | S -0.422 | M -0.433 | R -0.651 | W -0.267 | H -0.183 | G -0.791 | P -0.686 | A -0.608 | D -0.487
P3: S -0.605 | C -0.358 | I -0.305 | K -0.368 | W -0.545 | A -0.464 | M -0.333 | T 0.049 | N 0.031
K39: A -0.062 | H -0.205 | R -0.285 | S -0.081 | L -0.22 | E -0.095 | P -0.252 | Y -0.104 | W -0.507 | C -0.156 | Q 0.017 | D -0.308 | V -0.465 | G -0.875 | I -0.535
D13: G -0.844 | N -0.556 | C -0.66
D29: N -0.119
T25: P -0.627 | M -0.156 | N -0.192 | Q -0.143 | W -0.531 | A 0.042 | G -0.387 | C -0.159 | K -0.302 | H -0.395 | V 0.116 | R -0.317 | L -0.096 | F 0.201
E21: D -0.446
A8: W -0.347 | R -0.119 | L -0.288 | G -0.223 | V -0.457 | D -0.162 | E 0.147
K1: R -0.216 | E -0.022 | M -0.057 | Y -0.174 | F -0.498 | S -0.602 | G -0.225 | C 0.184 | V -0.191
L32: E -0.144 | S -0.18 | G -0.261 | T -0.246 | W -0.156 | M 0.043 | V -0.117 | K 0.002 | I -0.172 | R 0.019 | P -0.349 | D -0.283 | Q -0.15
W38: R -0.292 | T -0.343 | E -0.135 | L -1.01 | D 0.097 | A -0.369 | V -0.504 | G -0.304 | F -0.299 | H 0.034
V11: I -0.432
